# According to the nanobody polyreactivity screen of Harvey et al. (2022):
# Assay: yeast display, Sf9 membrane polyspecificity reagent, FACS + sequencing; frameworks hold sequencing errors
# Outline: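 In a synthetic yeast display library (Saccharomyces cerevisiae BJ5465), nanobody expression was induced with galactose for 36–48 hours. FACS gates were set low and high (top ~1%) using anti-HA fluorescence for expression and streptavidin fluorescence for binding of the Sf9 membrane reagent. Each polyreactivity label is drawn from the gate of origin.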
row,Sequence,polyreactivity (PSR sort gate)
1,QVQLVESGGGLVQAGGSLRLICAASGLTFRYYAMGWYRQAPGKERELVAAITRGGSTYYADSVKGRFTISRDNAKNTVYLQMNSLKPEDTAVYYCAAYDVRYNTYDYDYWGQGTQVTVSS,high polyreactivity
2,QVQLVESGGGLVQAGGSLRLICAASGLTFSIYAMGWYRQAPGKERELVAAITGRGGRTYYADSVKGRFTISRDNAKNTVYLQMNSLKPEDTAVYYCAARYRGTDFDYWGQGTQVTVSS,high polyreactivity
3,QVQLVESGGGLVQAGGSLRLICAASGLTFSRYAMGWYRQAPGKERELVAAITWSGSSTYYADSVKGRFTISRDKAKNTVYLQMNSLKPEDTAVYYCAARYGYSRGPYYRSDYWGQGTQVTVSS,high polyreactivity
4,QVQLVESGGGLVQAGGSLRLICAASGLTFYVNAMGWYRQAPGKERELVADISSGVSTNYADSVKGRFTISRDNAKNTVYLQMNSLKPEDTAVYYCNVERYKKLSRTHNYRRYNYWGQGTQVTVSS,high polyreactivity
5,QVQLVESGGGLVQAGGSLRLICAASGNIFVPNAMGWYREAPGKEWELVAAIRRGGSTNYADSVKGRFTISRDNAKTTVYFQMNSLKPEDTAVYYCAKSRVSFTDLEGYYWGQGTQVTVSS,low polyreactivity
6,QVQLVESGGGLVQAGGSLRLICAASGNTFYGYAMGWSRPAPGKERELVASITLSGDSTYYADSVKGRFTISRDNAKNTVYLQMNSLKPEDTAVYYCAGVYTYPLGYYHYTYDYWGQGTQVTVSS,low polyreactivity
7,QVQLVESGGGLVQAGGSLRLICAASGNTFYGYAMGWYRQAPGKERELVASITLSGDSTYYADSVKGRFTISRDNAKNTVYLQMNSLKPEDTAVYYCNRARHQYSRWHGGYYYWGQGTQVTVSS,low polyreactivity
8,QVQLVESGGGLVQAGGSLRLICAASGRIFALYAMGWYRQAPGKEREFVATITRGASTNYADSVKGRFTISRDNAKNTVYLQMNSLKPVDTAVYYCAAAGYKAAGRVVASYYWGQGTQVTVSS,high polyreactivity
9,QVQLVESGGGLVQAGGSLRLICAASGRIFASYTMGWYRQAPGKERELVAGISRRGGSTYYADSVKGRFTISRDNAKNTVYLQMNSLKPEDTAVYYCAAVSSVFSVRYDYWGQGTQVTVSS,high polyreactivity
10,QVQLVESGGGLVQAGGSLRLICAASGRIFDYYGMGWYRQAPGKETELVATIRRGGSTYYADSVKGRFTISRDNAMNTVYLQMNSLKPEDTAVYYCAAPGYSWYTYRRYDYWGQGTQVTVSS,high polyreactivity
11,QVQLVESGGGLVQAGGSLRLICAASGRIFFHYAMGWYRQAPGKVRELVAVISSTGGITNYADSVKGRFTISRDNAKNTVYLQMNSLKPEDTAVYYCNTVPRPFERYGYWGQGTQVTVSS,low polyreactivity
12,QVQLVESGGGLVQAGGSLRLICAASGRIFKYNAMGWDRQAPGTERELVAAISSSGGSTYYADSVKGRFTISRDNAKYTVYLLMNSLKPEDTAVYYCAARFNSGVYRYDYWGQGTQVTVSS,high polyreactivity
13,QVQLVESGGGLVQAGGSLRLICAASGRIFNRNAMGWYRQAPGKERELVASISSGGRTNYADSVKGRFTISRDNAKNTVYLQMNSLKPEDTAVYYCAAKSPRILLDYWGQGTQVTVSS,low polyreactivity
14,QVQLVESGGGLVQAGGSLRLICAASGRIFRGYAMGWYRQAPGKERELVAAISGRGGRTNYADSVKGRFTISRDNAKNTVYLQMNSLKPEDTAVYYCATVPYTASRYEYWGQGTQVTVSS,high polyreactivity
15,QVQLVESGGGLVQAGGSLRLICAASGRIFRHYAMGWYRQAPGKEREFVAAISRSGGSTYYADSVKGRFTISRDNAKNTVYLQMHSLKPEDTAVYYCYARHRYTGIRFFQPYDYWGQGTQVTVSS,low polyreactivity
16,QVQLVESGGGLVQAGGSLRLICAASGRIFRYNARGWYRQAPGKERELVAAISSGGSTNYADSVKGRFTTSRDNAKNTVYLQMNSLKPEDTAVYYCNAESVHRYPGWGYDYWGQGTQVTVSS,low polyreactivity
17,QVQLVESGGGLVQAGGSLRLICAASGRIFTAYVMGWYRQAPGKERQLVAAITEGGGNTYYADSVKGRFTISRDNAKNTVYLQMNSLKPEDTAVYYCAARYLVNGRKRLYYWGQGTQVTVSS,high polyreactivity
18,QVQLVESGGGLVQAGGSLRLICAASGRIFVGNTMGWYRQAPGKERELVAAITSSGGSTYYADSVKGRFTISRDNAKNTVYLQMNSLKPEDTAVYYCAARTREYQWRYYYWGQGTQVTVSS,high polyreactivity
19,QVQLVESGGGLVQAGGSLRLICAASGRIFVPYAMGWYRQAPGKERELVAAITYDGGSTYYADSVKGRFTISRDNAKNTVYLQMNSLKPEDTAVYYCAADYGYSQYILGQFRLEELDYWGQGTQVTVSS,low polyreactivity
20,QVQLVESGGGLVQAGGSLRLICAASGRIFVRNAMGWSRQAPGKERELVAAITSGGRTYYADSVKGRFTISRDNAQNTVYVQMNSLKPEDTAVYYCAARAGNASAIDVAYWGQGSQVTVSS,low polyreactivity
21,QVQLVESGGGLVQAGGSLRLICAASGRIINGYAMVWYRQAPGKERELVAANSVSGGSTYYADSVKGRFTISRDNAKNTVYLQMNSMKPEDTAVYYCNARIGSRSYAWISTRYDYWGQGNQVTVSS,high polyreactivity
22,QVQLVESGGGLVQAGGSLRLICAASGRISVFYTMGWYRQAPGKERELVAVIRTSGGRTNYADSVKGRFTISRDNAKNTVYLQMNSLKPEDTAVYYCAARVVRYGYKYYYWGQGTQVTVSS,low polyreactivity
23,QVQLVESGGGLVQAGGSLRLICAASGRTFAINTMGWYRQAPGKERELVATISGSAGNTYYADSVKGRFTISRDNAKNTVYVQMNSLKPEDSAVYSCAARQRKARQIVLLDYWGQGTQVTVSS,high polyreactivity
24,QVQLVESGGGLVQAGGSLRLICAASGRTFARYTMGWYRQARGKERELVASITRGGSTYYADSVKGRFTISRDNAKITVYLQMYSLKPEDSAVYYCNAVYIVGGDWGQGTQVTVSS,high polyreactivity
25,QVQLVESGGGLVQAGGSLRLICAASGRTFGKYAMGWYRQAPGKEMQLVAAITRRGGSTFYADSVKGRFRISRDNAKNTVYLQMNSLKPEDTAVYYCAARSTVGPQYGVRFNYWGQGTQVTVSS,high polyreactivity
26,QVQLVESGGGLVQAGGSLRLICAASGRTFILYTMGWYRQAPGKERELVAAITTGGSTSYADSVKGRFTISRDNAKNTVYLQMNSLKPEDTAVYNWAADTVGYSWRWFTWYEMGYWGQGTQVTVSS,low polyreactivity
27,QVQLVESGGGLVQAGGSLRLICAASGRTFRFYAMGWYRQAPGKERELVAAINYGGGNTYYADSVKGRFTISRDNAKNTVYLQMNSLKADDTAVYYCAAQYYYRARWFPYDYWGQGTQVTVSS,high polyreactivity
28,QVQLVESGGGLVQAGGSLRLICAASGRTFRVYAMGWYRQAPGKERELVASISRRGASTYYADSVKGRFTISRDIAKNTVYLQMNSLKPEDTAVYYCAADRRYYSVSPNTEFEYWGQGTQETVSS,high polyreactivity
29,QVQLVESGGGLVQAGGSLRLICAASGRTFRYYTMGWYRQAPGKEREFVAAISSTGGTYYADSVKGRFTNSRDNAKNTVYFQMNSLKPEDTAVYYWAAYRWGILSAYYYAWYGYWGQGTQVTVSS,low polyreactivity
30,QVQLVESGGGLVQAGGSLRLICAASGRTFSSNAMGWYRPAPGNERELVAAISTSGGRTYYADSVKGRCTISRDNAKNTVYLQMNSLKPEDTAVYYGAAEYVGTGTPDDYAYWGQGTQVTVSS,high polyreactivity
